Measurements taken from patent publication US20200377555A1 (Janssen / Centocor, published 2020).

How the values were obtained:
UFV160665 [1] = molecular target: T1, UFV160665 (influenza A H1N1 A/California/07/09); assay: ELISA, polypeptide coated, antibody titrated; average of 3 independent assays
UFV160664 [2] = molecular target: T2, UFV160664 (influenza A H1N1 A/California/07/09); assay: as above
UFV160655 [3] = molecular target: T3, UFV160655 (influenza A H1N1 A/Brisbane/59/07); assay: as above
UFV160656 [4] = molecular target: T4, UFV160656 (influenza A H1N1 A/California/07/09); assay: as above
UFV160665 [5] = molecular target: T1, UFV160665
UFV160664 [6] = molecular target: T2, UFV160664
UFV5369 = UFV5369 (influenza A H1N1 A/California/07/09)
UFV160655 [7] = molecular target: T3, UFV160655
UFV160656 [8] = molecular target: T4, UFV160656

B1: CR6261 (antibody, V domains shown)
VH: EVQLVESGAEVKKPGSSVKVSCKASGGPFRSYAISWVRQAPGQGPEWMGGIIPIFGTTKYAPKFQGRVTITADDFAGTVYMELSSLRSEDTAMYYCAKHMGYQVRETMDVWGKGTTVTVSS
VL: QSVLTQPPSVSAAPGQKVTISCSGSSSNIGNDYVSWYQQLPGTAPKLLIYDNNKRPSGIPDRFSGSKSGTSATLGITGLQTGDEANYYCATWDRRPTAYVVFGGGTKLTVLG
EC50 (UFV160665 [1]): 0.425 nM
EC50 (UFV160664 [2]): 0.395 nM
EC50 (UFV160655 [3]): 0.396 nM
EC50 (UFV160656 [4]): 0.432 nM
Kd (UFV160665 [5]): 0.56 nM
Kd (UFV160664 [6]): 0.57 nM
Kd (UFV5369): 0.97 nM
Kd (UFV160655 [7]): 0.55 nM
Kd (UFV160656 [8]): 0.6 nM
